We go through four sequences from a protein production outcome set (Wang et al. 2014).
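Also: failed if final PepcDB status was selected cloned or expressed and not failed if soluble or beyond.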

This data set is described as follows: label from the status in PepcDB records.
With “MRILLTTLNAKYIHVNLALRYLRACCRDLPHTFILDEFTINDHPEHIAAAIYRHRPDLVAFSCYIWNIEPTLAVAAILKKVRPELTILCGGPEVSFDTAAFLAQNPQIDLVITGEGEIPFRALLEQLAGQQRPPAGNREEPLTASMYRPAGGRPAPGPVPDPAAIPGLAWRRGAETIVNPPAPPLRDLDTIPFPYQEDLDAAGNELSQRTVYYETSRGCPFACGFCLSSTTEGLRYFSLERVRDDLERLLKAGVREIKFVDRTFNAHKKRALAIWEFLLSRRPRARCYFEIAGDRLDEEMLAHLNRVPPDLFQFEIGVQTIDAGVNARCNRRQDWARLAANTRRLREMGSIRLHLDLIAGLPGETYAGVGESFDAVVALKPHEIQLGFLKLLKGTTLRARADEFGYLFLDRPPYQVLASSAITYEEMLRLHAIEGLLKYYGNSHLADHAFAYLAATAFDGSYFAIYEALAAWWEARGLLRRGHSQRDLFNHLASFAIHLARGIATRVTVPPLPGYHDSILEINSHGDTPASGAEHSGCARNLTPAQLDRFYQLLKFDCLCRDRSRNFPGWMPPSPLTEEERSNWMARITTPRSMEKYMPGLVKESPANLRRHGFIELFPCHPERPEEDNPTIVFFYYGPPGSETRVYYLQAPPLVV”, the protein production entry is “failed”. As to “MRILTLGLDGSGEFAFQSHAHTDHFANGRLIFATRPTIFLSHLRNSRYYIPVDFGKKFYIGDFKAKLYPSGHILGSSGIKIWLDEGTLYYTGDVKVKKLRTVERAKLPKADFLIIESTFGLPRFTFPDPRESEKVIIGIVEDLIDRGKVPTFMANPYGKAQEIIKILNVHGYSVSVDREIAKVSKFYMKFGVRLKFEKEGEVKVSSSKGISVSGFGRIKLSNHADFWELLEIVERVNPEKVFTVYGHAEAFAKILNGLGYEAKSIRRNQKLEVWLEHHHHHH”, the protein production entry was “failed”.

As to “MRINILSEDTSNKIAAGEVVERPFSVVKELVENSIDAGAKTINIEIENGGRTLIKVLDDGYGIDKDDIEKAFMPHATSKISKLQDIYSINTLGFRGEALPSIASVSKTTLKSRTKENEFGREISISGGSVDYIKDCGTNIGTHIEVRDLFYNVPAREKFLKSTAKEASSISDIVNRLALAHSEISFRLINNGKRVITTYATDNLIDTIRAIYGKKICDNVISFERHTDLVSVHGYVGNAEISRGSRNNQSIFINKRYIKNKLITAAVENAVKSFMMINKFPFFIIFLDIFPEFVDVNVHPTKSEVKFQNERDIFKIIFDTVHEGIRNSLKESFKVEALKEEEDKLFDIKEDVITKNEIKHDDKIDGYIKKDSFPVPVQIPIDLKRPIENYDNSTKENKDRSFDDFREKDIIKETSQEKETYDIITNKKAKFPELRVIGQFNNTYILAESFEELYIIDQHAAHEKILFEKYREDIKNKGVSSQILITPSVVELLPEDFIYYDENKEVFKNAGFVIEYFGDNTVAIKEVPLFLGKPLVKDLFLEIIDNLKNMGSGETSEVKYRSIATAACKSAVKAYHELTHDEMKTLIQDLRFAEDPFNCPHGRPTIVRLTVTDFEKKFKRIQ”, the protein production result is given as “failed”. Consider “MRIQTTFSRKLVLMSLLAVFCGCADVHSSVKGDAMVEQAKGGVLREIKVAETGEGARVVLSADRPLAYTFYKTADPPKAVIDLARTEPGAIASPMDVNSDTIRRIETVRYGEGATAMTRVEVYFTRDTEANATIDASDKGMLVLAVARPVAPAASVAVEAAPAAGQAGESSTGAPVAVAAAPAVAPAPVAVEPQAPIAPVVAPQTGPPVIKAIEAQNGYLVIETSGEIKDFKFFRLAKPDRLVVDISDARLGINSKAIPLNALGVGMARIGAYPDKVRIVLDAAGGTLSPLNVTKGAAGLIVAPADKVVDVPRAAAPPQPSASASQARQPEAVKSAEPAKGLTPAVDAIEFKVLDGTSRITVAVTGACANDKPVKSADGFSVTLRNCILPKKLQRHLDTGAFASVVQKVTPYQVKTKGRSDVKIQVQLRQPASYDVRRDGDLLQVSVRNPEGFEPPVADVPASPTLQDGMDQAAVRQKEPSRETDPLAGVAQSGGTKKAYTGRRVTLEFSDADIRKIFQLIAEVSNLNFLVGDDVTGTISLKLVNVPWDQALDVILENKGLGMQRDGNIVQIRPKSKIQTLADEEQALKRAKERGMELKTEVFDINFAAVGDIVSQFNAVKSERGTISQDARTNRVIVKDIEPALAEMRILLKNLDLPEKQVLIEARIVEATSTFTRDLGVQWGIHSNDSGADIIRSVDAGFGGIVTPPPASGFPAATSSGGAVGISFAKMGSLQVDLRLSAAAVAGLVKIVSTPKVVTLNNKAAKISQGQSIPYQTTSAEGTKTEFVEAALTLEVTPHITADGSVSMKIKASNNSAGTGSPPPINKKEATTELLVKNGETTVIGGIYVDSDTDEDRGVPFLMDIPVLGWLFKSNTKNKTKTELLIFITPKIVS”, for which the protein production entry is “failed”.
